Measured values from patent publication KR20220081857A (dated 2022).

B1: 항 OX40L 항체 Hu3F07 (antibody, human IgG4 S228P, kappa, V domains shown)
VH: QVQLVQSGAEVKKPGASVKVSCKASGFTFPDYWMHWVRQAPGQGLEWMGEIDPPNGRTNYNEKFKSRVTMTRDTSISTAYMELSRLRSDDTAVYYCARGIYYVDYWGQGTTVTVSS
VL: DIVMTQSPLSLPVTLGEPASISCRSSQSLVHSNGNTYLHWYLQKPGQSPQLLIYKVSNRFSGVPDRFSGSGSGTDFTLKISRVEAEDVGVYYCSQSTHVPPTFGGGTKLEIKR
B2: 이중 특이성 항체 Hu3F07-TNFαi HC (bispecific antibody)
heavy: not shown
light: DIVMTQSPLSLPVTLGEPASISCRSSQSLVHSNGNTYLHWYLQKPGQSPQLLIYKVSNRFSGVPDRFSGSGSGTDFTLKISRVEAEDVGVYYCSQSTHVPPTFGGGTKLEIKRTVAAPSVFIFPPSDEQLKSGTASVVCLLNNFYPREAKVQWKVDNALQSGNSQESVTEQDSKDSTYSLSSTLTLSKADYEKHKVYACEVTHQGLSSPVTKSFNRGEC
B3: 이중 특이성 항체 02C09-TNFαi HC (bispecific antibody)
heavy: not shown
light: DIQMTQSPSSLSASLGDRVTITCRASQSIGRWLAWYQQKPGNAPKLLIYKATILESGVPSRFSGSGSGTEFALTISSLQPDDFSAYYCQQYNSYPYTFGQGTKLEIKRTVAAPSVFIFPPSDEQLKSGTASVVCLLNNFYPREAKVQWKVDNALQSGNSQESVTEQDSKDSTYSLSSTLTLSKADYEKHKVYACEVTHQGLSSPVTKSFNRGEC
B4: reference 항-OX40L 항체 O4L (oxelumab VH/VL) (antibody, human IgG4 S228P, kappa, V domains shown)
VH: EVQLLESGGGLVQPGGSLRLSCAASGFTFNSYAMSWVRQAPGKGLEWVSIISGSGGFTYYADSVKGRFTISRDNSRTTLYLQMNSLRAEDTAVYYCAKDRLVAPGTFDYWGQGALVTVSS
VL: DIQMTQSPSSLSASVGDRVTITCRASQGISSWLAWYQQKPEKAPKSLIYAASSLQSGVPSRFSGSGSGTDFTLTISSLQPEDFATYYCQQYNSYPYTFGQGTKLEIKR
B5: 항 OX40L 항체 21G07 (antibody, human IgG4 S228P, kappa, V domains shown)
VH: QVQLQQSGAELVKPGASVKLSCKASGYTFTNYWMQWVKQRPGQGLEWIGEIDPSDGRTNYNEKFKNKATLTVDRSSSTAYIKLSSLTSEDSAVYYCAREVSLRSMDYWGQGTSVTVSS
VL: DIVLTQSPLSLPVSLGDQASISCRSSQSLVHSNGNTYLHWYLQKPGQSPKLLIYKVSNRFSGVPDRFSGSGSGTDFTLKISRVEAEDLGVYFCSQSTHVPFTFGSGTKLEIKR
B6: 항 OX40L 항체 10H07 (antibody, human IgG4 S228P, kappa, V domains shown)
VH: QVYLQQSGAELVKPGASVKLSCKASGYTFTDYWMHWVKQRPGQGLEWIGEIDPGNGRTNYNEKFKNKATLSVDKSSNTAYMQFSSLTSEDSAVFYCASEGAGRGFPYWGQGTLVTVSA
VL: DVVLTQTPLSLPVSLGDQASISCRSSQSLVHSNGNTYLHWYLQKPGQSPKLLIYKVSNRFSGVPDRFSGSGSGTDFTLKISRVEAEDLGVYFCSQSTHVPWTFGGGTKLEIKR
B7: 이중 특이성 항체 I3F07-TNFαi HC (bispecific antibody)
heavy: not shown
light: DIVLTQSPLSLPVSLGDQASISCRSSQSLVHSNGNTYLHWYLQKPGQSPKLLIYKVSNRFSGVPDRFSGSGSGTDFTLKISRVEAEDLGVYFCSQSTHVPPTFGGGSKLEIKRTVAAPSVFIFPPSDEQLKSGTASVVCLLNNFYPREAKVQWKVDNALQSGNSQESVTEQDSKDSTYSLSSTLTLSKADYEKHKVYACEVTHQGLSSPVTKSFNRGEC

molecular target: T1, 인간 OX40L 단백질 (OX40L-his; ACROBiosystems Cat# OXL-H52Q8) (human, UniProt P23510 51-183); assay: cell-based or functional assay
T1 sequence: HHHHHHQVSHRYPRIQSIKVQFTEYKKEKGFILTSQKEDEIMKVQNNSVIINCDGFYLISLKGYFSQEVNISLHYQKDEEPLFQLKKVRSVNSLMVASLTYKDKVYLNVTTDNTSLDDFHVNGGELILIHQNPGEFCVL

Row | IC50 (nM), OX40L blockade assay [nM] | IC50 (μg/mL), OX40L blockade assay [µg/mL] | Binder
1 | 0.2 | 0.03 | B1
2 | 0.21 | 0.041 | B2
3 | 0.59 | 0.117 | B3
4 | 1.95 | 0.293 | B4
5 | 0.85 | 0.128 | B5
6 | 0.41 | 0.061 | B6

molecular target: T1, 인간 OX40L 단백질 (OX40L-his; ACROBiosystems …); assay: cell-based or functional assay; remark: another data set of the same source

Row | IC50 (nM), OX40L blockade assay [nM] | Binder
7 | 0.91 | B7

molecular target: 인간 TNFα (ACROBiosystems TNF-H5228) (human, UniProt P01375 77-233); assay: cell-based or functional assay
Sequence (P01375 77-233 limits assumed): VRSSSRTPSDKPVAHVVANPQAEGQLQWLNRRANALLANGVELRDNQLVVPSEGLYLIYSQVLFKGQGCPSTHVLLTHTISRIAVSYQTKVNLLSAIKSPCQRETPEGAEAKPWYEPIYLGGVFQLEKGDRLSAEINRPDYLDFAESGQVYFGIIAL

Row | IC50 (nM), TNFα blockade assay [nM] | Binder
8 | 0.055 | B7
